Measurements from patent US20100144636A1, “PEPTIDES DERIVED FROM RAS-P21 AND USES THEREFOR” (THE RESEARCH FOUNDATION OF STATE UNIVERSITY OF NEW YORK, priority 2008, published 2010).

B1: GST-pi: glutathione-S-transferase, pi isozyme, selective inhibitor of JNK-induced phosphorylation of jun (protein, UniProt P09211 2-210, looked up)
Glutathione S-transferase P: PPYTVVYFPVRGRCAALRMLLADQGQSWKEEVVTVETWQEGSLKASCLYGQLPKFQDGDLTLYQSNTILRHLGRTLGLYGKDQQEAALVDMVNDGVEDLRCKYISLIYTNYEAGKDDYVKALPGQLKPFETLLSQNQGGKTFIVGDQISFADYNLLDLLLIHEVLAPGCLDAFPLLSAYVGRLSARPKLKAFLASPEYVNLPINGNGKQ
B2: MKP-1T4: MAPK phosphatase that de-activates this kinase (protein, UniProt P28562 1-367, looked up)
Dual specificity protein …: MVMEVGTLDAGGLRALLGERAAQCLLLDCRSFFAFNAGHIAGSVNVRFSTIVRRRAKGAMGLEHIVPNAELRGRLLAGAYHAVVLLDERSAALDGAKRDGTLALAAGALCREARAAQVFFLKGGYEAFSASCPELCSKQSTPMGLSLPLSTSVPDSAESGCSSCSTPLYDQGGPVEILPFLYLGSAYHASRKDMLDALGITALINVSANCPNHFEGHYQYKSIPVEDNHKADISSWFNEAIDFIDSIKNAGGRVFVHCQAGISRSATICLAYLMRTNRVKLDEAFEFVKQRRSIISPNFSFMGQLLQFESQVLAPHCSAEAGSPAMAVLDRGTSTTTVFNFPVSIPVHSTNSALSYLQSPITTSPSC

Key:
[1] = system: insulin-induced oocyte maturation; experiment: Insulin-induced oocyte maturation (activated wild-type ras-p21); assay type: cell-based, Xenopus laevis; details: oocytes induced to mature with insulin
From the text: (§1) The Applicants have synthesized both of the inventive peptides, referred to as PNC-7 and PNC-2, and assayed them for their abilities to block oncogenic ras-p21 induction of maturation of Xenopus laevis oocytes. Injection of oncogenic, but not wild-type ras-p21, into these oocytes induce oocyte maturation, i.e., completion of the second meiotic division, as measured by germinal vesicle membrane breakdown (GVBD). Insulin also induces oocyte maturation in a manner that requires activation of endogenous wild-type ras-p21.

[2] = system: oncogenic (Val 12-containing) ras-p21-induced oocyte maturation; experiment: Oncogenic ras-p21-induced oocyte maturation (GVBD); assay type: cell-based, Xenopus laevis; details: injected/co-injected with oncogenic ras-p21 into oocytes
From the text: as §1

| Molecule | inhibition of insulin-induced oocyte maturation [1] | inhibition of oncogenic ras-p21-induced oocyte maturation [2] |
| --- | --- | --- |
| B1 | no effect | complete inhibition of oocyte maturation |
| B2 | considerably less effect | completely blocks |
